Source: US20100286372A1 (SCHERING, published 2010)

Columns and labels:
[1] = biological target: T1, human PXR-LBD (pregnane X receptor ligand binding domain, residues 130-434) with N-terminal 6x His (human, UniProt O75469 130-434); assay: temperature-dependent circular dichroism (thermal denaturation) of PXR with 50 uM peptide
T1 construct: also called apo PXR; not shown: N-terminal 6x His tag
T1 sequence: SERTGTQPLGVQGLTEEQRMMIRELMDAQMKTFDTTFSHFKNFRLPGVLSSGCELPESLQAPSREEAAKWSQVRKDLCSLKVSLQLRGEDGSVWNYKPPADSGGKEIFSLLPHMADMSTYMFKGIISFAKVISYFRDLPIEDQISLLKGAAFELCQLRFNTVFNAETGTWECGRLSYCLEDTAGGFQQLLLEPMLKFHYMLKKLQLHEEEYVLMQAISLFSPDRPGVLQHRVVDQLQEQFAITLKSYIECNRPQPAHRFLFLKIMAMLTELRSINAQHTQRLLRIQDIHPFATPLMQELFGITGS

[2] = biological target: T1, human PXR-LBD (pregnane X receptor …); assay: temperature-dependent circular dichroism (thermal denaturation), shift against apo PXR (Tm 41.5 C)
[3] = biological target: T1, human PXR-LBD (pregnane X receptor …); assay: temperature-dependent circular dichroism (thermal denaturation at 220 nm), 2.5 uM PXR, 50 uM peptide

CPSSHSSLTERHKILHRLLQEGSPS [SRC-1 peptide (676-CPSSHSSLTERHKILHRLLQEGSPS-700)]
Tm [1]: 45.5 C | ΔTm [2]: 4 C | Kd [3]: 1340 nM
